This note sets out measurements from article PMC12112590, “NDF/GLYR1 Promotes RNA Polymerase II Processivity via Pol II Binding and Nucleosome Destabilization” (International Journal of Molecular Sciences, 2025).

This experiment has as its target T1, Rpb1 subunit of yeast Pol II (S. cerevisiae, UniProt P04050 1-1733).
T1 construct: Rpb1, largest subunit of S. cerevisiae RNA polymerase II; identified as the labelled band after SDS-PAGE; source: subunit within purified S. cerevisiae Pol II
Kind of experiment: proximity labelling; in vitro biotinylation (BioID): 0-8 pmol hNDF-BirA* with 25 pmol yPol II in 20 μL; 20 mM HEPES pH 7.5, 10 mM MgCl2, 100 mM KCl, 1.5 mM ATP, 5% glycerol, 0.5 μM biotin; 30 °C, 1 h; SDS-PAGE and streptavidin-HRP blot. To be noted: both partners purified.

T1 sequence (P04050 whole entry): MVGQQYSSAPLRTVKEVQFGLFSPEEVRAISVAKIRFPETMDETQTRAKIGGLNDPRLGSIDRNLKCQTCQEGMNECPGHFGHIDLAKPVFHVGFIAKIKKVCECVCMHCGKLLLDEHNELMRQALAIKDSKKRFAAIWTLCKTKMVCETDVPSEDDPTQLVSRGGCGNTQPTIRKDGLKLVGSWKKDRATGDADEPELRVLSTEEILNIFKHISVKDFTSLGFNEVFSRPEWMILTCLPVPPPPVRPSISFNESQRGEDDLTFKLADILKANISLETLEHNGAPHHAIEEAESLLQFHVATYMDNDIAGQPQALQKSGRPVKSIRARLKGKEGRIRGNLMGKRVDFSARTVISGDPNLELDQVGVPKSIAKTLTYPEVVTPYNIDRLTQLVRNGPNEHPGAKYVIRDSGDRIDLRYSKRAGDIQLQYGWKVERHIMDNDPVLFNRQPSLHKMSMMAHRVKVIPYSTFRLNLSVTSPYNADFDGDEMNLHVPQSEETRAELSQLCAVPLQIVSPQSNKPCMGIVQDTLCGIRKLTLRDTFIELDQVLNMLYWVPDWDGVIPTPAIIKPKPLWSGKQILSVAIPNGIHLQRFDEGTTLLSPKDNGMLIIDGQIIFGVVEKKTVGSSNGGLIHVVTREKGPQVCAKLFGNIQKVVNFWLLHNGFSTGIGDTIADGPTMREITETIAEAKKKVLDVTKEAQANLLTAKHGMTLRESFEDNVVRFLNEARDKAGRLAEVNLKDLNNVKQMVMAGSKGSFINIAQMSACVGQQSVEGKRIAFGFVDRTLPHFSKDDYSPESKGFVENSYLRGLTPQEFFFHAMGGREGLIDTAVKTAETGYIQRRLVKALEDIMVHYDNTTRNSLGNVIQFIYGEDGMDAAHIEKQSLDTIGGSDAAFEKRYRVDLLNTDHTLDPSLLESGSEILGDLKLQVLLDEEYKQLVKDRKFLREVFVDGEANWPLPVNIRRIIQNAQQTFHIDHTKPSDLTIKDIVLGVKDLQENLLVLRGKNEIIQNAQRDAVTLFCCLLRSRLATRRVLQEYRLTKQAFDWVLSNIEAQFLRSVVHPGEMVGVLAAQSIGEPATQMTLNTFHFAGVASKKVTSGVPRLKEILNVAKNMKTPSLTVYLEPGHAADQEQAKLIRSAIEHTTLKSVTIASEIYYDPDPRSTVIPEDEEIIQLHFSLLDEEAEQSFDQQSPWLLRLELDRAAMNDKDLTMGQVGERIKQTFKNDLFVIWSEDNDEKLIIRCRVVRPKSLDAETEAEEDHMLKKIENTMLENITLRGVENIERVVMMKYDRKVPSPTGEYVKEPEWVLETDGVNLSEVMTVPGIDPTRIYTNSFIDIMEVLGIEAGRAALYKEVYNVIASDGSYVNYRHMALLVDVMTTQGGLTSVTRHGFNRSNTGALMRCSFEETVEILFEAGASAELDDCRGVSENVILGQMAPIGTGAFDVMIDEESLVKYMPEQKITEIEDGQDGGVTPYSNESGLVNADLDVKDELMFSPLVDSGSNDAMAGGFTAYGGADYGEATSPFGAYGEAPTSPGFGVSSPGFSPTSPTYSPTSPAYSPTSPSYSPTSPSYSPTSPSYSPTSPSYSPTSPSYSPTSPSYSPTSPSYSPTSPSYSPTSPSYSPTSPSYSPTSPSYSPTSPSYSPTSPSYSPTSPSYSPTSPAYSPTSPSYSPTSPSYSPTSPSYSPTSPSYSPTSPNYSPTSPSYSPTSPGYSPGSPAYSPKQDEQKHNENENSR

B1: BirA*-hNDF fusion protein (natural protein, human, UniProt Q49A26 1-553, looked up)
chain: MAAVSLRLGDLVWGKLGRYPPWPGKIVNPPKDLKKPRGKKCFFVKFFGTEDHAWIKVEQLKPYHAHKEEMIKINKGKRFQQAVDAVEEFLRRAKGKDQTSSHNSSDDKNRRNSSEERSRPNSGDEKRKLSLSEGKVKKNMGEGKKRVSSGSSERGSKSPLKRAQEQSPRKRGRPPKDEKDLTIPESSTVKGMMAGPMAAFKWQPTASEPVKDADPHFHHFLLSQTEKPAVCYQAITKKLKICEEETGSTSIQAADSTAVNGSITPTDKKIGFLGLGLMGSGIVSNLLKMGHTVTVWNRTAEKCDLFIQEGARLGRTPAEVVSTCDITFACVSDPKAAKDLVLGPSGVLQGIRPGKCYVDMSTVDADTVTELAQVIVSRGGRFLEAPVSGNQQLSNDGMLVILAAGDRGLYEDCSSCFQAMGKTSFFLGEVGNAAKMMLIVNMVQGSFMATIAEGLTLAQVTGQSQQTLLDILNQGQLASIFLDQKCQNILQGNFKPDFYLKYIQKDLRLAIALGDAVNHPTPMAAAANEVYKRAKALDQSDNDMSAVYRAYIH
notes: human NDF / GLYR1 fused to the promiscuous biotin ligase BirA*; The name is printed in both orders (BirA*-hNDF, hNDF-BirA*); the construct's name puts BirA* before hNDF; also called hNDF-BirA*; hNDF-BirA; source: pET21b-N-His6-BirA*-hNDF expression construct, purified as previously described [44]; not shown: BirA* (promiscuous biotin ligase), N-terminal, kept
Regarding B1, the binding result is given as “binds”.
